# Data from article PMC9482650, “Quantitative fragmentomics allow affinity mapping of interactomes” (Nature Communications, 2022).
# T1: PARD3B_1, Q8TEW8
# T1 sequence (Q8TEW8 196-299, limits assumed, looked up): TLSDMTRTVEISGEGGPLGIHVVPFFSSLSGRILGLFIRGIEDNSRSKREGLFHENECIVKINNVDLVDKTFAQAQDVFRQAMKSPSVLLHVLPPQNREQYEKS
# T2: SNTG2, Q9NY99
# T2 sequence (Q9NY99 68-166, limits assumed, looked up): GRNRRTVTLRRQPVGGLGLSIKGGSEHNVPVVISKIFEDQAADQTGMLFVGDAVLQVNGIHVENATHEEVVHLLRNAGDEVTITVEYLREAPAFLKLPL
# T3: LIN7A, O14910
# T3 sequence (O14910 103-200, limits assumed, looked up): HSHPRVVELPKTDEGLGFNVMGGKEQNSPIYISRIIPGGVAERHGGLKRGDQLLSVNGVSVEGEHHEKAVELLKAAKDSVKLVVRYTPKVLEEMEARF
# T4: MPDZ_5, O75970
# T4 sequence (O75970 695-796, limits assumed, looked up): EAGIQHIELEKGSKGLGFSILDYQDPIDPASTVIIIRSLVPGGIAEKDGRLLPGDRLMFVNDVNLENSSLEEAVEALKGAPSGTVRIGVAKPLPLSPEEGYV
# T5: LIN7B, Q9HAP6
# T5 sequence (Q9HAP6 88-185, limits assumed, looked up): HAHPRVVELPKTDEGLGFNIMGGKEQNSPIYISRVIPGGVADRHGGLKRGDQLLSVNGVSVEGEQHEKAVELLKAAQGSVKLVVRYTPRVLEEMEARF
# T6: DLG3_3, Q92796
# T6 sequence (Q92796 374-475, limits assumed, looked up): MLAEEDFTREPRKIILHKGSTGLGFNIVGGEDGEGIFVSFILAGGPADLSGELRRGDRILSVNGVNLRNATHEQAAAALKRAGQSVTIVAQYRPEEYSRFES
# T7: PDZD7_3, Q9H5P4
# T7 sequence (Q9H5P4 857-944, limits assumed, looked up): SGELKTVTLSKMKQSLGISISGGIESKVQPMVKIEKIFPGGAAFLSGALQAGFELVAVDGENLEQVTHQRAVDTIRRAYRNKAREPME
# T8: ARHGAP21, Q5T5U3
# T8 sequence (Q5T5U3 45-169, limits assumed, looked up): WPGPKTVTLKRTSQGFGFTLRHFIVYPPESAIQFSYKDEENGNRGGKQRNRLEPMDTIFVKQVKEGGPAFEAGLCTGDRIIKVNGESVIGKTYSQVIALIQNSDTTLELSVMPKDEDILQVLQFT
# T9: PCLO, Q9Y6V0
# T9 sequence (Q9Y6V0 4491-4600, limits assumed, looked up): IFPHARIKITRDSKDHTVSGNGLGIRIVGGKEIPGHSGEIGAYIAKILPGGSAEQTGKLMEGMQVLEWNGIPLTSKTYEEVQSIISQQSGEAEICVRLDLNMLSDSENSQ
# T10: TX1BP3, O14907
# T10 sequence (O14907 10-122, limits assumed, looked up): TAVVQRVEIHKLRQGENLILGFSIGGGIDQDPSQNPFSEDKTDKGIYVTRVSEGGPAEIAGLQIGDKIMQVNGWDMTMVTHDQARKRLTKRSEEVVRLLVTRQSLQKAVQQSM
# Assays:
# Assay in all cases: holdup assay
# Design in all cases: key: below the threshold = too weak to quantify, mostly under pKd 3.1 to 4
# [1] = target: T1, PARD3B_1, Q8TEW8
# [2] = target: GRIP2_3, Q9C0E4
# [3] = target: LDB3, O75112
# [4] = target: MAST2, Q6P0Q8
# [5] = target: IL16_3, Q14005
# [6] = target: T2, SNTG2, Q9NY99
# [7] = target: T3, LIN7A, O14910
# [8] = target: PICK1, Q9NRD5
# [9] = target: Inadl_5, Q8NI35
# [10] = target: GRIP2_5, Q9C0E4
# [11] = target: GRASP, Q7Z6J2
# [12] = target: T4, MPDZ_5, O75970
# [13] = target: TJP1_3, Q07157
# [14] = target: GRIP2_7, Q9C0E4
# [15] = target: T5, LIN7B, Q9HAP6
# [16] = target: T6, DLG3_3, Q92796
# [17] = target: FRMPD4, Q14CM0
# [18] = target: T7, PDZD7_3, Q9H5P4
# [19] = target: DLG2_2, Q15700
# [20] = target: T8, ARHGAP21, Q5T5U3
# [21] = target: DLG1_3, Q12959
# [22] = target: T9, PCLO, Q9Y6V0
# [23] = target: MAGI3_2, Q5TCQ9
# [24] = target: DLG1_1, Q12959
# [25] = target: DLG1_2, Q12959
# [26] = target: T10, TX1BP3, O14907
# [27] = target: Inadl_10, Q8NI35
# [28] = target: LNX1_3, Q8TBB1
# [29] = plain residues with an end cap or a label only (N-terminal biotin on a linker: ttds)
# [30] = plain residues with an end cap or a label only (N-terminal biotin on a linker: none)
# [31] = plain residues with an end cap or a label only (N-terminal biotin on a linker: ado-ado)
# GRIP2_7, Q9C0E4, sequence (Q9C0E4 934-1023): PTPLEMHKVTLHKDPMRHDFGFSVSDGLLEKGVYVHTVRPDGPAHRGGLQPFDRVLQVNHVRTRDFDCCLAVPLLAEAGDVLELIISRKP
# FRMPD4, Q14CM0, sequence (Q14CM0 67-160): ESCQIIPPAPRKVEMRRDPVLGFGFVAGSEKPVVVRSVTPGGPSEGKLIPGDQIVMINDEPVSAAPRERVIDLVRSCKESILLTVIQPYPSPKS
# LNX1_3, Q8TBB1, sequence (Q8TBB1 500-596): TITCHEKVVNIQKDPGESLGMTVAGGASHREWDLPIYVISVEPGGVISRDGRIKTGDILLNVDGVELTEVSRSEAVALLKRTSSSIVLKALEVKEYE
# PICK1, Q9NRD5, sequence (Q9NRD5 17-115): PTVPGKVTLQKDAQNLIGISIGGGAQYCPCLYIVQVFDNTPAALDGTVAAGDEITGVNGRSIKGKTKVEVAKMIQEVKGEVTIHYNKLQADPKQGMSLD
# GRIP2_5, Q9C0E4, sequence (Q9C0E4 544-642): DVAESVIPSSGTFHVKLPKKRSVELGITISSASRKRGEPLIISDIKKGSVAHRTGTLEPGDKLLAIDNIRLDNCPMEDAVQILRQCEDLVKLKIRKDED
# LDB3, O75112, sequence (O75112 1-94): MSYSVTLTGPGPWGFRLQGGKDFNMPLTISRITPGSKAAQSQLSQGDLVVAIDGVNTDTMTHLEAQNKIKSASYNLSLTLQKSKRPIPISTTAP
# GRASP, Q7Z6J2, sequence (Q7Z6J2 96-193): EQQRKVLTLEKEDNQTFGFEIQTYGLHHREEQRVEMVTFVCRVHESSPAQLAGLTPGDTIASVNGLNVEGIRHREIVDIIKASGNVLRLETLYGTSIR
# GRIP2_3, Q9C0E4, sequence (Q9C0E4 238-339): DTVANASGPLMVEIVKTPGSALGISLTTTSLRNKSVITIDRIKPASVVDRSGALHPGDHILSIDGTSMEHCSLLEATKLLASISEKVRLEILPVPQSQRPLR
# DLG2_2, Q15700, sequence (Q15700 189-283): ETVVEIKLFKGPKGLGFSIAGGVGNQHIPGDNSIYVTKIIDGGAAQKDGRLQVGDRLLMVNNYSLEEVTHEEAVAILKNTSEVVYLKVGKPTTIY
# MAST2, Q6P0Q8, sequence (Q6P0Q8 1099-1202): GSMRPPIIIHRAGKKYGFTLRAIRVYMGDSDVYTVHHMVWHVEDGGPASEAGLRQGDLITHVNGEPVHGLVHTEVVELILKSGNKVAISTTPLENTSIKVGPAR
# Inadl_10, Q8NI35, sequence (Q8NI35 1673-1763): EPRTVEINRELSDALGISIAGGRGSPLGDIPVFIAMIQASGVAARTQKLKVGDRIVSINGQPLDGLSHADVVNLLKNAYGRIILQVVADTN
# Inadl_5, Q8NI35, sequence (Q8NI35 673-780): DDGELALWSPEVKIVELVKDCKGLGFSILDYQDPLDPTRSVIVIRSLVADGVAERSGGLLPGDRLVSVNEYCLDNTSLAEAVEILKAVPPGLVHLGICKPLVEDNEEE
# TJP1_3, Q07157, sequence (Q07157 416-512): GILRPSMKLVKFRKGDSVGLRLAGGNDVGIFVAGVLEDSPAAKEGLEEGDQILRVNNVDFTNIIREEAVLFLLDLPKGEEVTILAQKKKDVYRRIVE
# IL16_3, Q14005, sequence (Q14005 1107-1207): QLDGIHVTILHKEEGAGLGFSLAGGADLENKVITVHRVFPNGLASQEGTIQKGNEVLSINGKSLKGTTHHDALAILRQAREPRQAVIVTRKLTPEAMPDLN
# MAGI3_2, Q5TCQ9, sequence (Q5TCQ9 398-503): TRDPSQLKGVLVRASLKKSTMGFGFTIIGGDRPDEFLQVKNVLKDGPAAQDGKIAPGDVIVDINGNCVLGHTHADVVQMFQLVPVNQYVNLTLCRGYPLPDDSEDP
binder,measurement,setting,value
"TGDTLEKFVEGL [CBP, Q92793]",pKd,[1]; [29],below the threshold
same,pKd,[2]; [29],below the threshold
same,pKd,[3]; [29],below the threshold
same,pKd,[4]; [29],below the threshold
same,pKd,[5]; [29],below the threshold
same,pKd,[6]; [29],below the threshold
same,pKd,[7]; [29],below the threshold
same,pKd,[8]; [29],below the threshold
same,pKd,[9]; [29],below the threshold
same,pKd,[10]; [29],below the threshold
same,pKd,[11]; [29],below the threshold
same,pKd,[12]; [29],below the threshold
same,pKd,[13]; [29],below the threshold
same,pKd,[14]; [29],below the threshold
same,pKd,[15]; [29],below the threshold
same,pKd,[16]; [29],below the threshold
same,pKd,[17]; [29],below the threshold
same,pKd,[18]; [29],below the threshold
same,pKd,[19]; [29],below the threshold
same,pKd,[20]; [29],below the threshold
same,pKd,[21]; [29],below the threshold
same,pKd,[22]; [29],below the threshold
same,pKd,[23]; [29],below the threshold
same,pKd,[24]; [29],below the threshold
same,pKd,[25]; [29],below the threshold
same,pKd,[26]; [29],4.03
same,pKd,[27]; [29],below the threshold
same,pKd,[28]; [29],below the threshold
"HRTCYLVTQL [ASIC3, Q9UHC3]",pKd,[1]; [29],3.95
same,pKd,[2]; [29],below the threshold
same,pKd,[3]; [29],below the threshold
same,pKd,[4]; [29],5.24
same,pKd,[5]; [29],below the threshold
same,pKd,[6]; [29],3.75
same,pKd,[7]; [29],below the threshold
same,pKd,[8]; [29],3.63
same,pKd,[9]; [29],below the threshold
same,pKd,[10]; [29],4.31
same,pKd,[11]; [29],4.77
same,pKd,[12]; [29],3.4
same,pKd,[13]; [29],below the threshold
same,pKd,[14]; [29],3.48
same,pKd,[15]; [29],3.38
same,pKd,[16]; [29],3.49
same,pKd,[17]; [29],3.77
same,pKd,[18]; [29],5.47
same,pKd,[19]; [29],3.93
same,pKd,[20]; [29],3.47
same,pKd,[21]; [29],4.56
same,pKd,[22]; [29],below the threshold
same,pKd,[23]; [29],4.3
same,pKd,[24]; [29],3.97
same,pKd,[25]; [29],4.12
same,pKd,[26]; [29],5.08
same,pKd,[27]; [29],3.84
same,pKd,[28]; [29],3.55
"DSKPPLPPDEWV [MERS-E, K9N5R3]",pKd,[1]; [30],3.5
same,pKd,[2]; [30],3.52
same,pKd,[3]; [30],below the threshold
same,pKd,[4]; [30],3.66
same,pKd,[5]; [30],below the threshold
same,pKd,[6]; [30],3.59
same,pKd,[7]; [30],below the threshold
same,pKd,[8]; [30],below the threshold
same,pKd,[9]; [30],3.74
same,pKd,[10]; [30],below the threshold
same,pKd,[11]; [30],below the threshold
same,pKd,[12]; [30],below the threshold
same,pKd,[13]; [30],3.56
same,pKd,[14]; [30],3.86
same,pKd,[15]; [30],below the threshold
same,pKd,[16]; [30],3.58
same,pKd,[17]; [30],4.07
same,pKd,[18]; [30],below the threshold
same,pKd,[19]; [30],below the threshold
same,pKd,[20]; [30],3.76
same,pKd,[21]; [30],3.5
same,pKd,[22]; [30],below the threshold
same,pKd,[23]; [30],below the threshold
same,pKd,[24]; [30],below the threshold
same,pKd,[25]; [30],3.57
same,pKd,[26]; [30],3.7
same,pKd,[27]; [30],below the threshold
same,pKd,[28]; [30],below the threshold
"RGGFGRQTQI [NCBP2L, A6PVI3]",pKd,[1]; [31],below the threshold
same,pKd,[2]; [31],below the threshold
same,pKd,[3]; [31],3.66
same,pKd,[4]; [31],5.6
same,pKd,[5]; [31],below the threshold
same,pKd,[6]; [31],3.52
same,pKd,[7]; [31],below the threshold
same,pKd,[8]; [31],below the threshold
same,pKd,[9]; [31],below the threshold
same,pKd,[10]; [31],below the threshold
same,pKd,[11]; [31],below the threshold
same,pKd,[12]; [31],below the threshold
same,pKd,[13]; [31],below the threshold
same,pKd,[14]; [31],below the threshold
same,pKd,[15]; [31],3.89
same,pKd,[16]; [31],3.82
same,pKd,[17]; [31],below the threshold
same,pKd,[18]; [31],4.38
same,pKd,[19]; [31],4.65
same,pKd,[20]; [31],below the threshold
same,pKd,[21]; [31],4.24
same,pKd,[22]; [31],below the threshold
same,pKd,[23]; [31],4.79
same,pKd,[24]; [31],4.39
same,pKd,[25]; [31],4.92
same,pKd,[26]; [31],4.4
same,pKd,[27]; [31],below the threshold
same,pKd,[28]; [31],below the threshold
"LHLHGTGIQV [EPHA7, Q15375]",pKd,[1]; [31],3.72
same,pKd,[2]; [31],below the threshold
same,pKd,[3]; [31],below the threshold
same,pKd,[4]; [31],4.63
same,pKd,[5]; [31],below the threshold
same,pKd,[6]; [31],below the threshold
same,pKd,[7]; [31],below the threshold
same,pKd,[8]; [31],3.56
same,pKd,[9]; [31],4.04
same,pKd,[10]; [31],3.55
same,pKd,[11]; [31],below the threshold
same,pKd,[12]; [31],4.1
same,pKd,[13]; [31],below the threshold
same,pKd,[14]; [31],3.82
same,pKd,[15]; [31],below the threshold
same,pKd,[16]; [31],3.51
same,pKd,[17]; [31],3.97
same,pKd,[18]; [31],below the threshold
same,pKd,[19]; [31],below the threshold
same,pKd,[20]; [31],3.73
same,pKd,[21]; [31],3.69
same,pKd,[22]; [31],below the threshold
same,pKd,[23]; [31],3.55
same,pKd,[24]; [31],below the threshold
same,pKd,[25]; [31],3.6
same,pKd,[26]; [31],4.12
same,pKd,[27]; [31],below the threshold
same,pKd,[28]; [31],3.48
